Test results taken from patent US20230039487A1 (SHENZHEN FEIPENG BIOLOGICAL THERAPY, published 2023).
Numbering of substitutions follows the chain as printed.

T1: hBCMA ECD hFc (ACRO, BC7-H5254) (human, UniProt Q02223 1-54)
T1 construct: extracellular domain; Bought reagent (ACRO BC7-H5254); also called R0341; not shown: human Fc
T1 sequence (looked up): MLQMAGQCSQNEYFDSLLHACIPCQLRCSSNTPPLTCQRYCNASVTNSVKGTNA

T2: human BCMA (full-length, on cells) (human, UniProt Q02223 1-184)
T2 construct: whole, on cells; also called K562-BCMA; CHO-BCMA
T2 sequence (looked up): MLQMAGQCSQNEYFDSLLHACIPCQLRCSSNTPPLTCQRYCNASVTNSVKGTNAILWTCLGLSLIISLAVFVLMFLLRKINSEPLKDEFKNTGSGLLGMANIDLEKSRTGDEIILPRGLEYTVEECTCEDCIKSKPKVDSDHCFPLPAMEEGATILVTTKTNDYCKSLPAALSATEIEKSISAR

T3: hu (human) BCMA ECD His (ACRO, BCA-H522y) (human, UniProt Q02223 1-54)
T3 construct: extracellular domain; Bought reagent (ACRO BCA-H522y); also called hu BCMA ECD His; not shown: His tag
T3 sequence (looked up): T1 sequence (looked up)

B1: R0317 (C11D5.3 BCMA mouse monoclonal antibody) (antibody, V domains shown)
VH: QIQLVQSGPELKKPGETVKISCKASGYTFTDYSINWVKRAPGKGLKWMGWINTETREPAYAYDFRGRFAFSLETSASTAYLQINNLKYEDTATYFCALDYSYAMDYWGQGTSVTVSS
VL: DIVLTQSPASLAMSLGKRATISCRASESVSVIGAHLIHWYQQKPGQPPKLLIYLASNLETGVPARFSGSGSGTDFTLTIDPVEEDDVAIYSCLQSRIFPRTFGGGTKLEIK
B2: 5E2 (antibody, V domains shown)
VH: EVQLQQSGPELIKPGASVKMSCKASGYTFTSYVVHWVKQKPGQGLEWIGYIIPYNDDTKYNEKFKGKATLTSDKSSSTAYMELSSLTSEDSAVYYCARWDYDDGYFDYWGQGTTLTVSS
VL: DVVMTQTPLSLPVTLGDQASISCRSSQSLLHSNGNTYLHWYLQKPGQSPKLLIYKVSNRFSGVPDRFSGSGSGTDFTLKISRVEAEDLGVYFCSQITHIPFTFGSGTKLEIKR
notes: Mouse hybridoma antibody; It was amplified with primers for mouse IgG1 and detected with anti-mouse IgG in Embodiment 2; In Embodiment 5 it is called mVH-mVL ('a murine antibody before humanization'); also called BCMA antibody 5E2; mVH-mVL
B3: hu VH1-VL1 (antibody, V domains shown)
VH: B2 VH with E1Q, Q5V, P9A, L11V, I12K, K38R, K40A, T87R, S91T, L115V
VL: DVVMTQSPLSLPVTLGQPASISCRSSQSLLHSNGNTYLHWYLQKPGQSPQLLIYKVSNRFSGVPDRFSGSGSGTDFTLKISRVEAEDVGVYFCSQITHIPFTFGQGTKLEIK
notes: Humanized 5E2; also called humanized BCMA antibody hu VH1-VL1
B4: hu VH1-VL3 (antibody, V domains shown)
VH: B2 VH with E1Q, Q5V, P9A, L11V, I12K, K38R, K40A, T87R, S91T, L115V
VL: DIVMTQTPLSLSVTPGQPASISCKSSQSLLHSNGNTYLHWYLQKPGQPPQLLIYKVSNRFSGVPDRFSGSGSGTDFTLKISRVEAEDVGVYYCSQITHIPFTFGQGTKLEIKR
notes: Humanized 5E2; also called humanized BCMA antibody hu VH1-VL3
B5: hu VH1-VL2 (antibody, V domains shown)
VH: B2 VH with E1Q, Q5V, P9A, L11V, I12K, K38R, K40A, T87R, S91T, L115V
VL: B3 VL with S7T, P12S, L15P, R24K
notes: Humanized 5E2; also called humanized BCMA antibody hu VH1-VL2
B6: hu VH2-VL1 (antibody, V domains shown)
VH: QVQLVQSGAEVKKPGASVKMSCKASGYTFTSYVVHWVRQAPGQGLEWIGYIIPYNDDTKYNEKFKGRVTLTSDKSTSTAYMELSSLRSEDTAVYYCARWDYDDGYFDYWGQGTTVTVSS
VL: B3 VL
notes: Humanized 5E2; also called humanized BCMA antibody hu VH2-VL1

How the values were obtained:
[1] = target: T1, hBCMA ECD hFc (ACRO, BC7-H5254); experiment: ELISA; hBCMA ECD hFc coated at 2 µg/ml, antibody in 3-fold dilutions
Description: R0317 is a C11D5.3BCMA mouse monoclonal antibody, and its specific sequence and information may be found publicly.

[2] = target: T2, human BCMA (full-length, on cells); experiment: flow cytometry on RPMI8226 and H929 myeloma cells; antibody from 10 µg/ml in 3-fold dilutions, PE anti-mouse IgG
Experimental: A RPMI8226 cell (ATCC® CRM-CCL-155™) is a human multiple myeloma peripheral blood B lymphocyte, and a H929 cell (ATCC® CRL-9068™) is a human multiple myeloma bone marrow B lymphocyte. A specific detection method is as follows: cells are harvested, washed with PBS once, and then resuspend with PBS according to 2E+5 cells/200 μl. The three antibodies are diluted in a gradient (the initial concentration of the antibody is 10 μg/ml, it is diluted with 1% BSA in 3-fold, and there is a total of 9 gradients), and then incubated with the cells for 30 min at 4° C. After that, it is incubated with a PE-labeled anti-mouse IgG secondary antibody (Biolegend, B288920), washed twice, and detected by a Beckman Coulter (model number: CytoFLEX) flow cytometry.

[3] = target: T3, hu (human) BCMA ECD His (ACRO, …); experiment: ELISA; hu BCMA ECD His coated at 2 µg/mL, antibody in 3-fold dilutions
[4] = target: T2, human BCMA (full-length, on cells); experiment: flow cytometry on K562, H929, RPMI8226 and K562-BCMA cells; PE goat anti-mouse IgG1
Description: The specificity of BCMA antibody of the present disclosure is detected by FACs. A human BCMA full-length gene is synthesized in vitro, and a restriction enzyme cutting site is introduced, the synthesized human BCMA full-length gene is inserted into a lentiviral packaging plasmid vector (PCDHF) by double enzyme digestion, and lentiviral packaging (the specific operation steps are generally 4 plasmid lentiviral packaging steps, please refer to a section about lentiviral packaging on an official website of Jikai Gene in detail) is performed. The prepared lentivirus is infected with a K562 cell (ATCC, article number: CCL-243) to construct a K562-BCMA cell, and the cells are single-clone-picked and identified, to obtain a stable cell line K562-BCMA stably expressing BCMA. The 5E2 and 5F4 antibodies are respectively incubated with K562, H929, RPMI8226 and K562-BCMA cells for 30 min at 4° C., after that, it is washed twice with PBS, then a secondary antibody PE goat anti-mouse IgG1 (Biolegend, B288920) is added, and incubated at 4° C. for 30 min, after that, it is washed twice with PBS. Then, the detection is performed by using a Beckman Coulter flow cytometry. Detection results are shown in FIG. 5 below, and 5E2 and 5F4 may specifically bind to the cells of which the BCMA expression is positive.

[5] = target: T3, hu (human) BCMA ECD His (ACRO, …); experiment: ELISA; hu BCMA ECD His coated at 2 µg/mL, antibody from 20 µg/mL in 3-fold dilutions
Description: Herein, mVH-mVL is a murine BCMA antibody, and is a murine antibody before humanization.

[6] = target: T2, human BCMA (full-length, on cells); experiment: flow cytometry on K562-BCMA and CHO-BCMA cells; antibody from 30 µg/ml in 3-fold dilutions, APC anti-human IgG Fc
Description: A K562 cell (ATCC® CCL-243™) is a human chronic myeloid leukemia cell, and a CHO cell (ATCC® CRL-12023™) is a Chinese hamster ovary cell. The K562 cells and the CHO cells are respectively infected with lentiviruses containing a full-length sequence of human BCMA, and after being infected, a monoclone is picked, to obtain a K562-BCMA cell line and a CHO-BCMA cell line stably expressing BCMA, and the affinity (EC50) of the four humanized antibodies to K562-BCMA and CHO-BCMA is detected respectively. A specific detection method is as follows: cells are harvested, washed once with PBS, and resuspended with PBS according to 2E+5 cells/200 μL. The four BCMA humanized antibodies are diluted in a 3-fold gradient with 1% BSA, the concentration of the former gradient antibody is 3 times greater than that of the latter gradient antibody, (the initial concentration of the antibody is 30 μg/ml, and there is a total of 11 gradients), and then it is respectively incubated with the cells at 4° C. for 30 min. After that, it is incubated with APC anti-human IgG Fc Antibody (Biolegend, 409306) for 30 min at 4° C., washed twice with 1x PBS, and detected by a Beckman Coulter (model number: CytoFLEX) flow cytometry. […] The affinity EC₅₀ of hu VH1VL2 to K562-BCMA is slightly weaker. However, the affinity EC₅₀ of hu VH1-VL2 and CHO-BCMA is at the same level as the other three humanized antibodies, and the expression abundance of the four humanized antibodies and the murine BCMA antibody binding to CHO-BCMA is in the order of m VH-m VL, hu VH1-VL1, hu VH2-VL1, hu VH1-VL2, and hu VH1-VL3 from high to low.

Row | Binder | binding result [1] | binding result [2] | binding result [3] | binding result [4] | binding result [5] | binding result [6]
1 | B1 | binds | binds |  |  |  | 
2 | B2 | binds |  | binds | binds |  | 
3 | B3 |  |  |  |  | binds | binds
4 | B4 |  |  |  |  | binds | binds
5 | B5 |  |  |  |  | binds | binds
6 | B6 |  |  |  |  | binds | binds
